The target in assay [1] is biotinylated human ApoC3 (human) (UniProt P02656). Kind of assay: SPR, biotinylated human ApoC3 on streptavidin chip, scFv-Fc injected; ratio of KD at pH 5.5 to KD at pH 7.4.
Assay [2] has the same target. Kind of assay: SPR, biotinylated human ApoC3 on streptavidin chip, scFv-Fc injected, pH 7.4. On the technique in general: SPR reads the build-up and loss of mass on a sensor chip optically.
The target is the same in assay [3]. Put plainly: SPR, biotinylated human ApoC3 on streptavidin chip, scFv-Fc injected, pH 5.5.

Changes are numbered by the printed parent chain.

As usually defined, the Kd is the constant that tells how readily two partners part at equilibrium. A lower Kd goes with tighter binding. The koff is the rate constant with which the complex falls apart. Read a high koff as a short-lived complex. The term kon denotes the second-order rate constant of association. Low values mean slow association, high ones fast association.

Sequence of UniProt P02656 (P02656 21-99): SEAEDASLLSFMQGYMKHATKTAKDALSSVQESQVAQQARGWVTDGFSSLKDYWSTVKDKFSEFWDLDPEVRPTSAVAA

B1: 5E5WT scFv-Fc antibody (scFv, part only; not given: Linker, domain order, Fc, V domains shown, not shown: another chain or arm of the molecule; a dimerising Fc or GST; small tags and cut ends)
VH: QLQLVESGGGLVQPGGSLRLSCAASGFTFGTYSMRWVRQVPRKALEWVSSISTDGGGTAYRDSVKGRFTISRDNAKNTLYLQMNNLKPEDTAIYYCVIAGYSDWGQGTQVTVSS
VL: ATMLTQSPGSLSVVPGESASISCKTSQGLVHSDGKTYFYWFLQKPGQSPQQLIYQVSNRASGVPDRFTGSGSGTDFTLKISGVKAEDAGVYYCAQGTYYPHTFGSGTRLEIK
As to B1, in assay [1], the KD pH 5.5/KD pH 7.4 turned out to be 3. In assay [2], this molecule came in with a dissociation constant (Kd) of 20 pM, a koff of 1.75e-05 s⁻¹ and an association rate constant (kon) of 823000 M⁻¹ s⁻¹. In assay [3], this molecule showed a dissociation constant Kd of 60 pM, a koff of 2.53e-05 s⁻¹ and an on-rate (kon) of 393000 M⁻¹ s⁻¹.

B2: 5E5VH5_VLWT scFv-Fc antibody (scFv, part only; not given: Linker, domain order, Fc, V domains shown, not shown: another chain or arm of the molecule; a dimerising Fc or GST; small tags and cut ends)
VH: B1 VH with S52H
VL: B1 VL
In the case of B2, the KD pH 5.5/KD pH 7.4 in assay [1] was 18.5. Moreover, in assay [2], the Kd was 590 pM, the koff is 0.000105 s⁻¹ and the kon stood at 178000 M⁻¹ s⁻¹. In assay [3], this molecule showed a Kd of 10900 pM, a koff of 0.0016 s⁻¹ and a kon of 147000 M⁻¹ s⁻¹.

B3: 5E5VH12_VLWT scFv-Fc antibody (scFv, part only; not given: Linker, domain order, Fc, V domains shown, not shown: another chain or arm of the molecule; a dimerising Fc or GST; small tags and cut ends)
VH: B1 VH with A99H
VL: B1 VL
Regarding B3, the KD pH 5.5/KD pH 7.4 in assay [1] was determined as 31.4. Besides, in assay [2], the equilibrium dissociation constant (Kd) worked out at 510 pM, the koff was 0.000157 s⁻¹ and the kon was 308000 M⁻¹ s⁻¹. In assay [3], this molecule registered a dissociation constant Kd of 16000 pM, a dissociation rate constant (koff) of 0.00206 s⁻¹ and an association rate constant (kon) of 129000 M⁻¹ s⁻¹.

B4: 5E5VHWT_VL8 scFv-Fc antibody (scFv, part only; not given: Linker, domain order, Fc, V domains shown, not shown: another chain or arm of the molecule; a dimerising Fc or GST; small tags and cut ends)
VH: B1 VH
VL: B1 VL with Q95H
Turning to B4, the KD pH 5.5/KD pH 7.4 in assay [1] is 7.4. In assay [2], this molecule displayed a Kd of 580 pM, a dissociation rate constant (koff) of 0.000221 s⁻¹ and a kon of 381000 M⁻¹ s⁻¹. Besides, in assay [3], the equilibrium dissociation constant (Kd) came to 4290 pM, the koff was found to be 0.00116 s⁻¹ and the kon amounted to 269000 M⁻¹ s⁻¹.
